Data: patent US20230250135A1 (Janssen / Centocor, published 2023)

Tests used:
UFV161333 = UFV161333 (influenza A virus A/Hong Kong/1/68 …)
UFV161715 = UFV161715 (influenza A virus A/Hong Kong/1/68 …); test: Binding-AlphaLISA, Expi293F supernatant, normalized to UFV161333
UFV161721 = UFV161721 (influenza A virus A/Hong Kong/1/68 …); test: as above
UFV171004 = UFV171004 (influenza A virus A/Hong Kong/1/68 …); test: ELISA on purified polypeptide
UFV170051 = UFV170051 (influenza A virus A/Hong Kong/1/68 …); test: Binding-AlphaLISA, Expi293F supernatant, reference UFV170051

Binder	fold increase in binding relative to reference UFV161686 (UFV161333)	binding relative to reference UFV161333 (UFV161715)	binding relative to reference UFV161333 (UFV161721)	EC50 (UFV171004)	binding result (UFV170051)
SD15013 (VHH) VHH: EVQLVESGGGLVQAGDSLRISCAASGRTLSIYSMGWFRQAPGKEREFVATIGWNSGRTFYPDSLKGRFTISRDNARNTLYLQMNNLRPEDTAVYYCAAAKGPLRLSSQADYWGQGTQVTVSS	10 fold	~60%	~60%		
CT149 (antibody, V domains shown) VH: QVQLVQSGAEVKKPGASVKVSCKTSGYSFSTYGVSWVRQAPGQGPEWVGWISAYTGITDYAQKFQGRVTLTTDATTATAFLDLRSLRPDDTATYFCARDKVQGRVEVGSGGRHDYWGQGTLVIVSS VL: EVVLTQSPGTLALPPGERATLSCRASHRVGSTYIAWYQQKSGQAPRRLIYGASNRATDIPDRFSGSGSGTDFTLTIRRLEPEDSAVYYCQQFSVSPWTFGQGTRVEIK		~90%		< 0.01 nM	binds
